# System: Escherichia coli TOP10
# Assay: shrunken log2 fold change of peptide-encoding DNA abundance (4.5 h post-induction vs induction); higher = less antimicrobial activity (less host growth inhibition)
# Settings: time post-induction: 4.5 h; library: site-saturation at positions 5, 18, 19, 20
# 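Also: peptides expressed intracellularly from a pBAD plasmid library in pooled LB shake-flask culture, induced with 0.3% L-arabinose, DNA abundance read by NGS, three biological replicates, DESeq2 with apeglm shrinkage.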
row,Sequence,shrunken log2 fold change
1,RRIRDRPPRLPRPRPRPVFPPRP,0.108
2,RRIRDRPPRLPRPRPRPFLLPRP,0.0901
3,RRIRCRPPRLPRPRPRPRTWPRP,0.326
4,RRIRRRPPRLPRPRPRPNDTPRP,-0.115
5,RRIRMRPPRLPRPRPRPKTPPRP,3.35
6,RRIRIRPPRLPRPRPRPYHFPRP,-0.248
7,RRIRARPPRLPRPRPRPVPQPRP,0.271
8,RRIRARPPRLPRPRPRPCVNPRP,0.194
9,RRIRARPPRLPRPRPRPLGWPRP,0.951
10,RRIRPRPPRLPRPRPRPTWTPRP,0.071
11,RRIRTRPPRLPRPRPRPFSLPRP,-0.0845
12,RRIRTRPPRLPRPRPRPQWMPRP,-0.291
13,RRIRERPPRLPRPRPRPDHKPRP,-0.501
14,RRIRRRPPRLPRPRPRPPFPPRP,0.645
15,RRIRNRPPRLPRPRPRPQSTPRP,-0.548
16,RRIRWRPPRLPRPRPRPGSNPRP,0.227
17,RRIRRRPPRLPRPRPRPDVFPRP,0.06
18,RRIRNRPPRLPRPRPRPPYPPRP,-0.0162
19,RRIRYRPPRLPRPRPRPDSWPRP,-0.602
20,RRIRTRPPRLPRPRPRPDKCPRP,-0.229
21,RRIRRRPPRLPRPRPRPHEVPRP,0.0299
22,RRIRYRPPRLPRPRPRPFQNPRP,-0.0769
23,RRIRGRPPRLPRPRPRPLGSPRP,0.338
24,RRIRLRPPRLPRPRPRPVRVPRP,0.428
25,RRIRGRPPRLPRPRPRPWHYPRP,0.0232

row,Sequence,shrunken log2 fold change
1,RRIRSRPPRLPRPRPRPFGPPRP,0.132
2,RRIRTRPPRLPRPRPRPIKFPRP,-0.0306
3,RRIRPRPPRLPRPRPRPLDKPRP,-0.0324
4,RRIRPRPPRLPRPRPRPTLIPRP,-0.169
5,RRIRTRPPRLPRPRPRPLFEPRP,-0.166
6,RRIRTRPPRLPRPRPRPTAPPRP,0.159
7,RRIRIRPPRLPRPRPRPFQPPRP,-0.407
8,RRIRGRPPRLPRPRPRPMTQPRP,0.28
9,RRIRWRPPRLPRPRPRPGQFPRP,0.061
10,RRIRHRPPRLPRPRPRPQFFPRP,-0.619
11,RRIRMRPPRLPRPRPRPVVHPRP,0.0142
12,RRIRARPPRLPRPRPRPCQIPRP,-0.486
13,RRIRGRPPRLPRPRPRPQINPRP,0.324
14,RRIRVRPPRLPRPRPRPDFVPRP,-0.0423
15,RRIRDRPPRLPRPRPRPDGAPRP,0.657
16,RRIRYRPPRLPRPRPRPLPFPRP,-0.78
17,RRIRGRPPRLPRPRPRPQWQPRP,-0.134
18,RRIRERPPRLPRPRPRPSYYPRP,-0.126
19,RRIRSRPPRLPRPRPRPIIPPRP,-0.188
20,RRIRTRPPRLPRPRPRPFWLPRP,-0.0299
21,RRIRPRPPRLPRPRPRPIQMPRP,-0.166
22,RRIRWRPPRLPRPRPRPDYEPRP,-0.0912
23,RRIRMRPPRLPRPRPRPVPTPRP,0.5
24,RRIRNRPPRLPRPRPRPWNNPRP,-0.15
25,RRIRHRPPRLPRPRPRPIVDPRP,0.0237

row,Sequence,shrunken log2 fold change
1,RRIRKRPPRLPRPRPRPPWKPRP,0.173
2,RRIRLRPPRLPRPRPRPCGHPRP,-0.0228
3,RRIRLRPPRLPRPRPRPETYPRP,-0.215
4,RRIRRRPPRLPRPRPRPSCEPRP,0.13
5,RRIRMRPPRLPRPRPRPSRCPRP,0.274
6,RRIRGRPPRLPRPRPRPAGPPRP,0.644
7,RRIRNRPPRLPRPRPRPMFWPRP,0.0282
8,RRIRPRPPRLPRPRPRPGCSPRP,0.266
9,RRIRCRPPRLPRPRPRPEYQPRP,0.123
10,RRIRYRPPRLPRPRPRPDHTPRP,-0.11
11,RRIRQRPPRLPRPRPRPICMPRP,-0.0553
12,RRIRQRPPRLPRPRPRPPFNPRP,-0.159
13,RRIRHRPPRLPRPRPRPVCFPRP,-0.0341
14,RRIRSRPPRLPRPRPRPTLSPRP,0.0887
15,RRIRHRPPRLPRPRPRPYAWPRP,-0.0931
16,RRIRGRPPRLPRPRPRPHRCPRP,-0.0209
17,RRIRGRPPRLPRPRPRPHWLPRP,0.14
18,RRIRTRPPRLPRPRPRPDKMPRP,-0.392
19,RRIRDRPPRLPRPRPRPFDLPRP,-0.312
20,RRIRGRPPRLPRPRPRPCDRPRP,0.00287
21,RRIRRRPPRLPRPRPRPLKAPRP,0.785
22,RRIRFRPPRLPRPRPRPSTQPRP,-0.503
23,RRIRGRPPRLPRPRPRPHHAPRP,0.254
24,RRIRVRPPRLPRPRPRPASTPRP,-0.311
25,RRIRERPPRLPRPRPRPCTLPRP,-0.407

row,Sequence,shrunken log2 fold change
1,RRIRSRPPRLPRPRPRPDTKPRP,-0.248
2,RRIRRRPPRLPRPRPRPPPNPRP,0.951
3,RRIRTRPPRLPRPRPRPLQHPRP,-0.257
4,RRIRRRPPRLPRPRPRPEMGPRP,0.626
5,RRIRYRPPRLPRPRPRPDRHPRP,-0.189
6,RRIRSRPPRLPRPRPRPIGMPRP,-0.35
7,RRIRLRPPRLPRPRPRPVAGPRP,0.0563
8,RRIRDRPPRLPRPRPRPRITPRP,-0.138
9,RRIRDRPPRLPRPRPRPYKIPRP,-1.46
10,RRIRMRPPRLPRPRPRPGLCPRP,1.79
11,RRIRCRPPRLPRPRPRPDIWPRP,0.116
12,RRIRCRPPRLPRPRPRPQDNPRP,-0.285
13,RRIRPRPPRLPRPRPRPVMDPRP,0.0311
14,RRIRYRPPRLPRPRPRPECSPRP,-0.15
15,RRIRWRPPRLPRPRPRPHTSPRP,-0.672
16,RRIRGRPPRLPRPRPRPECSPRP,1.2
17,RRIRIRPPRLPRPRPRPMFQPRP,0.0263
18,RRIRRRPPRLPRPRPRPYYPPRP,-0.468
19,RRIRGRPPRLPRPRPRPPGHPRP,0.772
20,RRIRCRPPRLPRPRPRPETCPRP,0.0181
21,RRIRIRPPRLPRPRPRPRTMPRP,-0.377
22,RRIRQRPPRLPRPRPRPPIDPRP,0.00417
23,RRIRNRPPRLPRPRPRPGEFPRP,-0.00204
24,RRIRRRPPRLPRPRPRPHGMPRP,0.0957
25,RRIRERPPRLPRPRPRPVRPPRP,0.849

row,Sequence,shrunken log2 fold change
1,RRIRTRPPRLPRPRPRPQYYPRP,-0.266
2,RRIRVRPPRLPRPRPRPGKDPRP,0.114
3,RRIRERPPRLPRPRPRPQAYPRP,-0.131
4,RRIRLRPPRLPRPRPRPYCNPRP,-0.963
5,RRIRMRPPRLPRPRPRPLMIPRP,-0.159
6,RRIRFRPPRLPRPRPRPTITPRP,-0.513
7,RRIRLRPPRLPRPRPRPEGKPRP,-0.00133
8,RRIRIRPPRLPRPRPRPEAFPRP,0.0813
9,RRIRGRPPRLPRPRPRPEDIPRP,0.165
10,RRIRHRPPRLPRPRPRPNQLPRP,-0.154
11,RRIRDRPPRLPRPRPRPRWLPRP,0.511
12,RRIRWRPPRLPRPRPRPYECPRP,-0.148
13,RRIRFRPPRLPRPRPRPRNLPRP,-0.016
14,RRIRPRPPRLPRPRPRPRWPPRP,0.616
15,RRIRERPPRLPRPRPRPGGFPRP,0.292
16,RRIRRRPPRLPRPRPRPPARPRP,0.762
17,RRIRIRPPRLPRPRPRPNKFPRP,-0.992
18,RRIRNRPPRLPRPRPRPCIPPRP,-0.0387
19,RRIRERPPRLPRPRPRPFRFPRP,-0.185
20,RRIRWRPPRLPRPRPRPHAQPRP,0.0298
21,RRIRKRPPRLPRPRPRPYNPPRP,-1.13
22,RRIRLRPPRLPRPRPRPQYHPRP,-0.895
23,RRIRCRPPRLPRPRPRPQMKPRP,-0.514
24,RRIRWRPPRLPRPRPRPMDLPRP,-0.214
25,RRIRIRPPRLPRPRPRPDLWPRP,0.078

row,Sequence,shrunken log2 fold change
1,RRIRVRPPRLPRPRPRPICLPRP,0.0369
2,RRIRCRPPRLPRPRPRPILIPRP,1.28
3,RRIRDRPPRLPRPRPRPQWPPRP,-0.0971
4,RRIRYRPPRLPRPRPRPPELPRP,0.162
5,RRIRYRPPRLPRPRPRPKCCPRP,0.013
6,RRIRSRPPRLPRPRPRPVGQPRP,0.236
7,RRIRVRPPRLPRPRPRPQRVPRP,0.0942
8,RRIRVRPPRLPRPRPRPGQWPRP,0.0407
9,RRIRDRPPRLPRPRPRPFPVPRP,-0.0955
10,RRIRHRPPRLPRPRPRPRDIPRP,0.115
11,RRIRFRPPRLPRPRPRPYWAPRP,-0.328
12,RRIRSRPPRLPRPRPRPMPHPRP,0.00101
13,RRIRMRPPRLPRPRPRPDSFPRP,-0.0586
14,RRIRHRPPRLPRPRPRPKHGPRP,0.109
15,RRIRMRPPRLPRPRPRPQTDPRP,0.19
16,RRIRDRPPRLPRPRPRPVGLPRP,0.627
17,RRIRWRPPRLPRPRPRPMNAPRP,0.327
18,RRIRHRPPRLPRPRPRPNQQPRP,-0.0412
19,RRIRNRPPRLPRPRPRPQMIPRP,-0.0608
20,RRIRLRPPRLPRPRPRPDWTPRP,0.000807
21,RRIRNRPPRLPRPRPRPLVRPRP,-0.372
22,RRIRTRPPRLPRPRPRPANFPRP,-0.234
23,RRIRERPPRLPRPRPRPQGIPRP,-0.044
24,RRIRFRPPRLPRPRPRPRHVPRP,-0.0276
25,RRIRARPPRLPRPRPRPCKHPRP,-0.116
